Experimental data from paper PMC9482650, “Quantitative fragmentomics allow affinity mapping of interactomes” (Nature Communications, 2022).

molecular target: PDLIM1, O00151; experiment: holdup assay; parameters: key: below the threshold = too weak to quantify, mostly under pKd 3.1 to 4; conditions: plain residues with an end cap or a label only (N-terminal biotin on a linker: ado-ado)
Sequence (O00151 1-87): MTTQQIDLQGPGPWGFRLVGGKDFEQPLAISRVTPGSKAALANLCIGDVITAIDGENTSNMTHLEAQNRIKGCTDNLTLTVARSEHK

Binder	pKd
GNDPDRGTSI [GRID2, O43424]	below the threshold

molecular target: SCRIB_1, Q14160; experiment: holdup assay; parameters: key: below the threshold = too weak to quantify, mostly under pKd 3.1 to 4; conditions: plain residues with an end cap or a label only (N-terminal biotin on a linker: ado-ado)
Sequence (Q14160 718-814): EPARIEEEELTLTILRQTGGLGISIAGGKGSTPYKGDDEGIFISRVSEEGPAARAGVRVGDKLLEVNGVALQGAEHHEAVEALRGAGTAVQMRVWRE

Binder	pKd
GNDPDRGTSI [GRID2, O43424]	below the threshold

molecular target: Inadl_1, Q8NI35; experiment: holdup assay; parameters: key: below the threshold = too weak to quantify, mostly under pKd 3.1 to 4; conditions: plain residues with an end cap or a label only (N-terminal biotin on a linker: ado-ado)
Sequence (Q8NI35 113-229): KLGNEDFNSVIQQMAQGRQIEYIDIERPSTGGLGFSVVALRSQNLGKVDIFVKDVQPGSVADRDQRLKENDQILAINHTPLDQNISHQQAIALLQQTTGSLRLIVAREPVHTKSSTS

Binder	pKd
GNDPDRGTSI [GRID2, O43424]	below the threshold

molecular target: SCRIB_3, Q14160; experiment: holdup assay; parameters: key: below the threshold = too weak to quantify, mostly under pKd 3.1 to 4; conditions: plain residues with an end cap or a label only (N-terminal biotin on a linker: ado-ado)
Sequence (Q14160 999-1103): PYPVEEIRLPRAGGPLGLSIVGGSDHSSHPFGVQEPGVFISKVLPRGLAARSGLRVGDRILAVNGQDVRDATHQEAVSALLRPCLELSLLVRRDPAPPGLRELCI

Binder	pKd
GNDPDRGTSI [GRID2, O43424]	4.29

molecular target: IL16_1, Q14005; experiment: holdup assay; parameters: key: below the threshold = too weak to quantify, mostly under pKd 3.1 to 4; conditions: plain residues with an end cap or a label only (N-terminal biotin on a linker: ado-ado)
Sequence (Q14005 210-306): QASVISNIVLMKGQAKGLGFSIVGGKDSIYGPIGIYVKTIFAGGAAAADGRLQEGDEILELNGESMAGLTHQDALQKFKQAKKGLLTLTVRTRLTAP

Binder	pKd
GNDPDRGTSI [GRID2, O43424]	below the threshold

molecular target: GRIP2_6, Q9C0E4; experiment: holdup assay; parameters: key: below the threshold = too weak to quantify, mostly under pKd 3.1 to 4; conditions: plain residues with an end cap or a label only (N-terminal biotin on a linker: ado-ado)
Sequence (Q9C0E4 648-740): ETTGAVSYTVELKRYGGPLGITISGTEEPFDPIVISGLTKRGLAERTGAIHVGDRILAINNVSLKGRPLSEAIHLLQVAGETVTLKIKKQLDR

Binder	pKd
GNDPDRGTSI [GRID2, O43424]	below the threshold

molecular target: T1, MPDZ_10, O75970; experiment: holdup assay; parameters: key: below the threshold = too weak to quantify, mostly under pKd 3.1 to 4; conditions: plain residues with an end cap or a label only (N-terminal biotin on a linker: ado-ado)
T1 sequence (O75970 1624-1722, limits assumed, looked up): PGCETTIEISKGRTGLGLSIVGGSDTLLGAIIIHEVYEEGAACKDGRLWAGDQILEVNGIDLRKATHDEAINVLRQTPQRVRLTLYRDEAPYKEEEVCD

Binder	pKd
GNDPDRGTSI [GRID2, O43424]	below the threshold

molecular target: T2, PDZRN3_1, Q9UPQ7; experiment: holdup assay; parameters: key: below the threshold = too weak to quantify, mostly under pKd 3.1 to 4; conditions: plain residues with an end cap or a label only (N-terminal biotin on a linker: ado-ado)
T2 sequence (Q9UPQ7 244-349, limits assumed, looked up): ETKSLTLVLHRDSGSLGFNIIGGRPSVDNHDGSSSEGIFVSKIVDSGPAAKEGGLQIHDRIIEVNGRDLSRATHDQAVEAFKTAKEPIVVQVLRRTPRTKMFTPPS

Binder	pKd
GNDPDRGTSI [GRID2, O43424]	3.88

molecular target: T3, MPP7, Q5T2T1; experiment: holdup assay; parameters: key: below the threshold = too weak to quantify, mostly under pKd 3.1 to 4; conditions: plain residues with an end cap or a label only (N-terminal biotin on a linker: ado-ado)
T3 sequence (Q5T2T1 134-230, limits assumed, looked up): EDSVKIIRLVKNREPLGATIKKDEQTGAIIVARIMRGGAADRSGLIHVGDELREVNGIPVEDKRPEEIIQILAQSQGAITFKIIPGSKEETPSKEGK

Binder	pKd
GNDPDRGTSI [GRID2, O43424]	below the threshold

molecular target: T4, RHPN1, Q8TCX5; experiment: holdup assay; parameters: key: below the threshold = too weak to quantify, mostly under pKd 3.1 to 4; conditions: plain residues with an end cap or a label only (N-terminal biotin on a linker: ado-ado)
T4 sequence (Q8TCX5 508-602, limits assumed, looked up): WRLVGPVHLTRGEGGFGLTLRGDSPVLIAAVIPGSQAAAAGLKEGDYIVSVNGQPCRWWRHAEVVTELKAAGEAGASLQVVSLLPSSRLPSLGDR

Binder	pKd
GNDPDRGTSI [GRID2, O43424]	below the threshold

molecular target: NHERF4_4, Q86UT5; experiment: holdup assay; parameters: key: below the threshold = too weak to quantify, mostly under pKd 3.1 to 4; conditions: plain residues with an end cap or a label only (N-terminal biotin on a linker: ado-ado)
Sequence (Q86UT5 464-550): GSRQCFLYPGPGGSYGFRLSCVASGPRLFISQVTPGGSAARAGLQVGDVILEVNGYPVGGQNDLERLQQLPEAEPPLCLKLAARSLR

Binder	pKd
GNDPDRGTSI [GRID2, O43424]	below the threshold

molecular target: T5, FRMPD1, Q5SYB0; experiment: holdup assay; parameters: key: below the threshold = too weak to quantify, mostly under pKd 3.1 to 4; conditions: plain residues with an end cap or a label only (N-terminal biotin on a linker: ado-ado)
T5 sequence (Q5SYB0 52-145, limits assumed, looked up): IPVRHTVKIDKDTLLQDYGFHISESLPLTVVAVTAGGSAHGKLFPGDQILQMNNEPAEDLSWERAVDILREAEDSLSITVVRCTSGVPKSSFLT

Binder	pKd
GNDPDRGTSI [GRID2, O43424]	below the threshold

molecular target: NHERF4_1, Q86UT5-2; experiment: holdup assay; parameters: key: below the threshold = too weak to quantify, mostly under pKd 3.1 to 4; conditions: plain residues with an end cap or a label only (N-terminal biotin on a linker: ado-ado)
Sequence (Q86UT5 other isoform, or with tags, fused parts or gaps): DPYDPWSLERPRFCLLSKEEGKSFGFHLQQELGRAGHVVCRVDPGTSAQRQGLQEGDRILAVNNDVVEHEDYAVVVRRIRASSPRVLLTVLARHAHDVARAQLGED

Binder	pKd
GNDPDRGTSI [GRID2, O43424]	below the threshold

molecular target: DLG4_1, P78352; experiment: holdup assay; parameters: key: below the threshold = too weak to quantify, mostly under pKd 3.1 to 4; conditions: plain residues with an end cap or a label only (N-terminal biotin on a linker: ado-ado)
Sequence (P78352 62-152): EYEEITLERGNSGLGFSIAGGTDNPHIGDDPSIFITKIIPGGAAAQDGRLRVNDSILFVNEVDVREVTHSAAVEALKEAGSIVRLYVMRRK

Binder	pKd
GNDPDRGTSI [GRID2, O43424]	below the threshold

molecular target: FRMPD2_2, Q68DX3; experiment: holdup assay; parameters: key: below the threshold = too weak to quantify, mostly under pKd 3.1 to 4; conditions: plain residues with an end cap or a label only (N-terminal biotin on a linker: ado-ado)
Sequence (Q68DX3 944-1038): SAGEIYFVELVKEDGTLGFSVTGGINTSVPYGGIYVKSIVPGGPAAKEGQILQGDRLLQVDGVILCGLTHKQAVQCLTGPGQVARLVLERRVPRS

Binder	pKd
GNDPDRGTSI [GRID2, O43424]	below the threshold

molecular target: Inadl_3, Q8NI35; experiment: holdup assay; parameters: key: below the threshold = too weak to quantify, mostly under pKd 3.1 to 4; conditions: plain residues with an end cap or a label only (N-terminal biotin on a linker: ado-ado)
Sequence (Q8NI35 359-469): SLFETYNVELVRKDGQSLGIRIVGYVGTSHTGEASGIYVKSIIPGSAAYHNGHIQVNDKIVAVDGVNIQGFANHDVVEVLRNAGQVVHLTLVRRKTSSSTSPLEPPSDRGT

Binder	pKd
GNDPDRGTSI [GRID2, O43424]	below the threshold

molecular target: T6, HTRA3, P83110; experiment: holdup assay; parameters: key: below the threshold = too weak to quantify, mostly under pKd 3.1 to 4; conditions: plain residues with an end cap or a label only (N-terminal biotin on a linker: ado-ado)
T6 sequence (P83110 354-453, limits assumed, looked up): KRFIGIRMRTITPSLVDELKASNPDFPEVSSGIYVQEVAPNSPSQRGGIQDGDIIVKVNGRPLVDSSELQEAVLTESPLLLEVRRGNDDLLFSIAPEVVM

Binder	pKd
GNDPDRGTSI [GRID2, O43424]	below the threshold

molecular target: TJP1_2, Q07157; experiment: holdup assay; parameters: key: below the threshold = too weak to quantify, mostly under pKd 3.1 to 4; conditions: plain residues with an end cap or a label only (N-terminal biotin on a linker: ado-ado)
Sequence (Q07157 181-274): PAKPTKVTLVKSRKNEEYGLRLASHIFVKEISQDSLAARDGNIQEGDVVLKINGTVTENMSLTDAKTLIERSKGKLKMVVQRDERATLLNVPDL

Binder	pKd
GNDPDRGTSI [GRID2, O43424]	below the threshold

molecular target: Inadl_4, Q8NI35; experiment: holdup assay; parameters: key: below the threshold = too weak to quantify, mostly under pKd 3.1 to 4; conditions: plain residues with an end cap or a label only (N-terminal biotin on a linker: ado-ado)
Sequence (Q8NI35 547-651): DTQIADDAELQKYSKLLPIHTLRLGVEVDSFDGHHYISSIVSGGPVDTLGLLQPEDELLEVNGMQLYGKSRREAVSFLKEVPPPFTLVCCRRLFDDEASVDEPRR

Binder	pKd
GNDPDRGTSI [GRID2, O43424]	below the threshold

molecular target: T7, LRRC7, Q96NW7; experiment: holdup assay; parameters: key: below the threshold = too weak to quantify, mostly under pKd 3.1 to 4; conditions: plain residues with an end cap or a label only (N-terminal biotin on a linker: ado-ado)
T7 sequence (Q96NW7 1440-1537, limits assumed, looked up): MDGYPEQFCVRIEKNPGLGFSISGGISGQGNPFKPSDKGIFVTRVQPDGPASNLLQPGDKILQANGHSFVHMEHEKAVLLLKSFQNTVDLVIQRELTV

Binder	pKd
GNDPDRGTSI [GRID2, O43424]	below the threshold

molecular target: T8, DFNB31_2, Q9P202; experiment: holdup assay; parameters: key: below the threshold = too weak to quantify, mostly under pKd 3.1 to 4; conditions: plain residues with an end cap or a label only (N-terminal biotin on a linker: ado-ado)
T8 sequence (Q9P202 274-371, limits assumed, looked up): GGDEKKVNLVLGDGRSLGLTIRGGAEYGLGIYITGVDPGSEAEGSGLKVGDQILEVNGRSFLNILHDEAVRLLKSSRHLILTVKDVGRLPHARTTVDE

Binder	pKd
GNDPDRGTSI [GRID2, O43424]	below the threshold

molecular target: T9, ARHGAP21, Q5T5U3; experiment: holdup assay; parameters: key: below the threshold = too weak to quantify, mostly under pKd 3.1 to 4; conditions: plain residues with an end cap or a label only (N-terminal biotin on a linker: ado-ado)
T9 sequence (Q5T5U3 45-169, limits assumed, looked up): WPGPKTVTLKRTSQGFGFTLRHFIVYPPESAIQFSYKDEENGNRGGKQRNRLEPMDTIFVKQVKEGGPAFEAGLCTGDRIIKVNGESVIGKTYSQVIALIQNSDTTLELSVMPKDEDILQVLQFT

Binder	pKd
GNDPDRGTSI [GRID2, O43424]	below the threshold

molecular target: T10, SNTB1, Q13884; experiment: holdup assay; parameters: key: below the threshold = too weak to quantify, mostly under pKd 3.1 to 4; conditions: plain residues with an end cap or a label only (N-terminal biotin on a linker: ado-ado)
T10 sequence (Q13884 107-205, limits assumed, looked up): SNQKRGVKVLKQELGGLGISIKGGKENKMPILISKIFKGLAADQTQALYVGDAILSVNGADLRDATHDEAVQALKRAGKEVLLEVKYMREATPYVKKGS

Binder	pKd
GNDPDRGTSI [GRID2, O43424]	below the threshold

molecular target: GORASP2, Q9H8Y8; experiment: holdup assay; parameters: key: below the threshold = too weak to quantify, mostly under pKd 3.1 to 4; conditions: plain residues with an end cap or a label only (N-terminal biotin on a linker: ado-ado)

Binder	pKd
GNDPDRGTSI [GRID2, O43424]	below the threshold

molecular target: GORASP1, Q9BQQ3; experiment: holdup assay; parameters: key: below the threshold = too weak to quantify, mostly under pKd 3.1 to 4; conditions: plain residues with an end cap or a label only (N-terminal biotin on a linker: ado-ado)
Sequence (Q9BQQ3 1-208): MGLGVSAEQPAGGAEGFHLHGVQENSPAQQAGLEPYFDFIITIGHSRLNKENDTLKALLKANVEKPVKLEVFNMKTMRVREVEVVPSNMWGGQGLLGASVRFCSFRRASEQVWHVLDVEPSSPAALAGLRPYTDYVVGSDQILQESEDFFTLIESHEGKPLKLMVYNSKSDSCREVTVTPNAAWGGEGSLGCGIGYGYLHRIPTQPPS

Binder	pKd
GNDPDRGTSI [GRID2, O43424]	below the threshold

molecular target: T11, MPDZ_5, O75970; experiment: holdup assay; parameters: key: below the threshold = too weak to quantify, mostly under pKd 3.1 to 4; conditions: plain residues with an end cap or a label only (N-terminal biotin on a linker: ado-ado)
T11 sequence (O75970 695-796, limits assumed, looked up): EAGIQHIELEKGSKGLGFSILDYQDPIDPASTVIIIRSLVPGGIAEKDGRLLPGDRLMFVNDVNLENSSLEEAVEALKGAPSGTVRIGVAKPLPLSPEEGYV

Binder	pKd
GNDPDRGTSI [GRID2, O43424]	below the threshold

molecular target: DLG2_3, Q15700; experiment: holdup assay; parameters: key: below the threshold = too weak to quantify, mostly under pKd 3.1 to 4; conditions: plain residues with an end cap or a label only (N-terminal biotin on a linker: ado-ado)

Binder	pKd
GNDPDRGTSI [GRID2, O43424]	3.69
